Results: patent publication US20110039770A1, “INHIBITORS OF PROTEIN KINASE C ISOFORMS AND USES THEREOF” (PHARMAGAP INC., priority 2005, published 2011)
Each block holds one binder with its values, some of them ahead of it. Where no end group is shown, it is not given here.

How the values were obtained:
[1] = biological target: PKC-β (endogenous, IMR-32 lysate) (human) (UniProt P05771); test: WB competition Protocol A, IMR-32 lysate, vs anti-PKC-β Ab; 75 µg peptide
[2] = biological target: PKC-β (endogenous, IMR-32 lysate) (human) (UniProt P05771); test: WB competition Protocol A, IMR-32 lysate, vs anti-PKC-β Ab; 300 µg peptide
[3] = biological target: PKC-β (endogenous, IMR-32 lysate) (human) (UniProt P05771); test: WB competition Protocol A, IMR-32 lysate, vs anti-PKC-β Ab; 600 µg peptide
[4] = biological target: PKC-β (endogenous, IMR-32 lysate) (human) (UniProt P05771); test: WB competition Protocol B, IMR-32 extract, vs anti-PKC-β Ab; 100 µg peptide
[5] = biological target: PKC-β (endogenous, IMR-32 lysate) (human) (UniProt P05771); test: WB competition Protocol B, IMR-32 extract, vs anti-PKC-β Ab; 200 µg peptide
[6] = biological target: PKC-β (endogenous, IMR-32 lysate) (human) (UniProt P05771); test: WB competition Protocol B, IMR-32 extract, vs anti-PKC-β Ab; 300 µg peptide
[7] = biological target: PKC-ζ, purified isoform (UniProt Q05513); test: competition ELISA on coated purified PKC-ζ vs anti-PKC ζ antibody; PRE 50 µM
[8] = biological target: PKC-ζ, purified isoform (UniProt Q05513); test: competition ELISA on coated purified PKC-ζ vs anti-PKC ζ antibody; PRE 100 µM
[9] = biological target: PKC-ζ, purified isoform (UniProt Q05513); test: competition ELISA on coated purified PKC-ζ vs anti-PKC ζ antibody; PRE 200 µM
[10] = biological target: PKC-βI (purified isoform) (Homo sapiens (Human)), P05771; test: competitive ELISA, coated purified PKC-βI, vs anti-PKC βI (SC-209); PRE 50 µM; details: remark: other sources report otherwise
[11] = biological target: PKC-βI (purified isoform) (Homo sapiens (Human)), P05771; test: competitive ELISA, coated purified PKC-βI, vs anti-PKC βI (SC-209); PRE 100 µM; details: remark: other sources report otherwise
[12] = biological target: PKC-βI (purified isoform) (Homo sapiens (Human)), P05771; test: competitive ELISA, coated purified PKC-βI, vs anti-PKC βI (SC-209); PRE 200 µM; details: remark: other sources report otherwise
[13] = biological target: PKC-δ, purified isoform, Q05655; test: cell-based or functional assay
[14] = biological target: PKC-ζ, purified isoform, Q05513; test: cell-based or functional assay
[15] = biological target: PKC-δ, Q05655; test: cell-based or functional assay
[16] = biological target: PKC-βI (purified isoform) (Homo sapiens (Human)) (UniProt P05771); test: competitive ELISA, coated purified PKC-βI, vs anti-PKC βI (SC-209); PRE 50 µM
[17] = biological target: PKC-βI (purified isoform) (Homo sapiens (Human)) (UniProt P05771); test: competitive ELISA, coated purified PKC-βI, vs anti-PKC βI (SC-209); PRE 100 µM
[18] = biological target: PKC-βI (purified isoform) (Homo sapiens (Human)) (UniProt P05771); test: competitive ELISA, coated purified PKC-βI, vs anti-PKC βI (SC-209); PRE 200 µM

PKC-δ, purified isoform, Q05655, sequence (Q05655 whole entry, stated change not applied, canonical isoform): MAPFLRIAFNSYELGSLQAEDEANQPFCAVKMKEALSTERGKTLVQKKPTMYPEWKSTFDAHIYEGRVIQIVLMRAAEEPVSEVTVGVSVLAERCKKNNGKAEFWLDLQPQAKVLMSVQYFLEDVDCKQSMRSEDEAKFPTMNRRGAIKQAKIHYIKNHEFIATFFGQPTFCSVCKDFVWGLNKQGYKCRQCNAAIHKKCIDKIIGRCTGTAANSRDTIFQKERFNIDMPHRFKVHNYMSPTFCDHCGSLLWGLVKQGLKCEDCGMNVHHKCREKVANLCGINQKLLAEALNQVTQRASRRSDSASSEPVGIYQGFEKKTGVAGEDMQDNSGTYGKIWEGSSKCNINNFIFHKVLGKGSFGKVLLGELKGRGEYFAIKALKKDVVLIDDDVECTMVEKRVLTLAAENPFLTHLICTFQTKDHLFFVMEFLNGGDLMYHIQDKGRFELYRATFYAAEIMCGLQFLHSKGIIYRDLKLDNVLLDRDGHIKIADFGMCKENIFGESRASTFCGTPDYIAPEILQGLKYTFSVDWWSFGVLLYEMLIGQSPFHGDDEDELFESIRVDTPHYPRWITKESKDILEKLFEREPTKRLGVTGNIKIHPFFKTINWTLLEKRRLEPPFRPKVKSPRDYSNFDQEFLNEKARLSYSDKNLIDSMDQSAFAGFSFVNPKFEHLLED
PKC-δ, Q05655, sequence (Q05655 whole entry, stated change not applied, canonical isoform): as above
PKC-β (endogenous, IMR-32 lysate) (human), sequence (P05771 2-671): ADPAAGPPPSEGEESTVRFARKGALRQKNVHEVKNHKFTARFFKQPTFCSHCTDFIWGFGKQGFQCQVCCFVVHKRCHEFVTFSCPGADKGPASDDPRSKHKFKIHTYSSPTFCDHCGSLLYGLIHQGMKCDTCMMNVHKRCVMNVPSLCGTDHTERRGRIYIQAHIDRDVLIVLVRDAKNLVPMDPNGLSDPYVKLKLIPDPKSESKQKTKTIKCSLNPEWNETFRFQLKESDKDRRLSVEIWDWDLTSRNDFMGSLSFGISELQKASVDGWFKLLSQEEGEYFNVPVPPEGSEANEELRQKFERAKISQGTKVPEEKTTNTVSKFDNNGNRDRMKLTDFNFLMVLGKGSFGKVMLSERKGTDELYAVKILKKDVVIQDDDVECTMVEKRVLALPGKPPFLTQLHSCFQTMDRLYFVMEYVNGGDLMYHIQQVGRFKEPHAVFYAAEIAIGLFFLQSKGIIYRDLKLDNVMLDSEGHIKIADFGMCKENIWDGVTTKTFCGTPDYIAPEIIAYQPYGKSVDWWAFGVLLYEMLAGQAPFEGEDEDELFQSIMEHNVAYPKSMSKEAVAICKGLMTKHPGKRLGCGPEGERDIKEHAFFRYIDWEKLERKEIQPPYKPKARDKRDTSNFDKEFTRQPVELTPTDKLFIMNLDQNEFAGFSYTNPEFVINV
PKC-βI (purified isoform) (Homo sapiens (Human)), P05771, sequence (P05771 2-671 limits assumed): as the sequence (P05771 2-671) above
PKC-βI (purified isoform) (Homo sapiens (Human)), sequence (P05771 2-671 limits assumed): as the sequence (P05771 2-671) above
PKC-ζ, purified isoform, sequence (Q05513 whole entry, canonical isoform): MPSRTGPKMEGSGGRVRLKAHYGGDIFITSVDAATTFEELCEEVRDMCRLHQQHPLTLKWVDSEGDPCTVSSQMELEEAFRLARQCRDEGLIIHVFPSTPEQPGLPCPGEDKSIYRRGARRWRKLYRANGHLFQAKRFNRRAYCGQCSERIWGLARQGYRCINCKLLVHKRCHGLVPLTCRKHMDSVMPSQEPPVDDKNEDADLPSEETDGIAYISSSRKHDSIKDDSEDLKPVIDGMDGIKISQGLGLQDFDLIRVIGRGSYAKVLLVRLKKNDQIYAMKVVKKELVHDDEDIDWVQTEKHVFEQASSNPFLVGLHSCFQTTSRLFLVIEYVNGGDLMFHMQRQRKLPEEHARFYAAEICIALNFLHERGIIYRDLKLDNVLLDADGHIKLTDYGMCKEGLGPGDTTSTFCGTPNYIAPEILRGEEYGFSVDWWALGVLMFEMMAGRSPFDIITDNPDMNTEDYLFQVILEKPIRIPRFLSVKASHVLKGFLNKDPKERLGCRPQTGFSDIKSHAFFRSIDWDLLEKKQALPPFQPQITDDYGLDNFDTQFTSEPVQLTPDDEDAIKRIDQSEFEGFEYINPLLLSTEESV
PKC-ζ, purified isoform, Q05513, sequence (Q05513 whole entry, canonical isoform): as above

- Band Intensity [1]: 1.9
- Inhibition (%) [1]: 0%
- Relative Intensity (%) [1]: 102%
- Band Intensity [2]: 1.9
- Inhibition (%) [2]: 0%
- Relative Intensity (%) [2]: 102%
- Band Intensity [3]: 1.85
- Inhibition (%) [3]: 0%
- Relative Intensity (%) [3]: 99.6%
- Band Intensity [4]: 0
- Inhibition (%) [4]: 100%
- Relative Intensity (%) [4]: 0%
- Band Intensity [5]: 0
- Inhibition (%) [5]: 100%
- Relative Intensity (%) [5]: 0%
- Band Intensity [6]: 0
- Inhibition (%) [6]: 100%
- Relative Intensity (%) [6]: 0%
- relative binding capacity [7]: 14%
- relative binding capacity [8]: 23.9%
- relative binding capacity [9]: 29.1%
Binder: Ac-AKGIQEVKGGDAQNLIGISI-NH2 [PRE 3]

- relative binding capacity (100-%n, DMSO subtracted) [10]: 0%
- relative binding capacity (100-%n, DMSO subtracted) [11]: 0%
- relative binding capacity (100-%n, DMSO subtracted) [12]: 0%
Binder: ILEDKGGDAQNLIGISI [PRE 8]

- % Inhibition of PKC activity at 150 µM [13]: 32%
- % Inhibition of PKC activity at 300 µM [13]: 41%
- % Inhibition of PKC activity at 600 µM [13]: 70%
- % Inhibition of PKC activity at 150 µM [14]: 37%
- % Inhibition of PKC activity at 300 µM [14]: 40%
- % Inhibition of PKC activity at 600 µM [14]: 56%
Binder: FRRK(adenine PNA)FRL [compound PKI 3]

- Band Intensity [1]: 0.8
- Inhibition (%) [1]: 31%
- Relative Intensity (%) [1]: 69%
- Band Intensity [2]: 0.403
- Inhibition (%) [2]: 65.3%
- Relative Intensity (%) [2]: 34.7%
- Band Intensity [4]: 0.0322
- Inhibition (%) [4]: 54.7%
- Relative Intensity (%) [4]: 45.3%
- Band Intensity [5]: 0
- Inhibition (%) [5]: 100%
- Relative Intensity (%) [5]: 0%
- Band Intensity [6]: 0
- Inhibition (%) [6]: 100%
- Relative Intensity (%) [6]: 0%
Binder: KDAQNLIGISL-NH2 [PRE 2]

- % Inhibition of PKC activity at 150 µM [13]: 90%
- % Inhibition of PKC activity at 300 µM [13]: 90%
- % Inhibition of PKC activity at 600 µM [13]: 95%
- % Inhibition of PKC activity at 150 µM [14]: 60%
- % Inhibition of PKC activity at 300 µM [14]: 60%
- % Inhibition of PKC activity at 600 µM [14]: 58%
Binder: FRRCFRL [compound PKI 4]

- relative binding capacity [7]: 0%
- relative binding capacity [8]: 0%
- relative binding capacity [9]: 5.85%
Binder: Ac-KDAQNLIGISI-NH2 [PRE 4]

- Band Intensity [1]: 0.825
- Inhibition (%) [1]: 28.9%
- Relative Intensity (%) [1]: 71.1%
- Band Intensity [2]: 0.528
- Inhibition (%) [2]: 54.5%
- Relative Intensity (%) [2]: 45.5%
Binder: RRKKGGKDFVVKR [PRE 1]

- relative binding capacity [7]: 0%
- relative binding capacity [8]: 0%
- relative binding capacity [9]: 4.29%
Binder: Ac-RDAQNLI-NH2 [PRE 13]

- % Inhibition of kinase activity (Kinase-Glo), compound at 5.0 µM [15]: 56.3%
- % Inhibition of kinase activity (Kinase-Glo), compound at 30.0 µM [15]: 85.1%
Binder: Ac-FRRCFRLGGGGGGGAKGIQEVKGGDAQNLIGISI-NH2 [Compound TIM 18 (PRE 3 and PKI 4)]

- relative binding capacity [7]: 0%
- relative binding capacity [8]: 0%
- relative binding capacity [9]: 0%
Binder: Ac-ISIGILNQADK-NH2 [PRE 10]

- relative binding capacity [7]: 1.83%
- relative binding capacity (100-%n, DMSO subtracted) [16]: 2.1%
- relative binding capacity [8]: 0%
- relative binding capacity [9]: 1.54%
- relative binding capacity (100-%n, DMSO subtracted) [17]: 0%
- relative binding capacity (100-%n, DMSO subtracted) [18]: 0%
Binder: Ac-ISIGILQNADK-NH2 [PRE 7]

- % Inhibition of kinase activity (Kinase-Glo), compound at 5.0 µM [15]: 46%
- % Inhibition of kinase activity (Kinase-Glo), compound at 30.0 µM [15]: 45.4%
Binder: Ac-FRRCFRLGGGGGGGRRKKGGKDFVVKR-NH2 [Compound TIM 20 (PRE 1 and PKI 4)]

- relative binding capacity [7]: 0%
- relative binding capacity [8]: 0%
- relative binding capacity [9]: 0%
Binder: Ac-KDANQLIGISI-NH2 [PRE 6]

- relative binding capacity [7]: 0%
- relative binding capacity [8]: 0%
- relative binding capacity [9]: 0%
Binder: Ac-RDAQNLIGISI-NH2 [PRE 11]

- relative binding capacity [7]: 4.2%
- relative binding capacity [8]: 8.77%
- relative binding capacity [9]: 0.33%
Binder: Ac-KDAQNLI-NH2 [PRE 12]

- relative binding capacity [7]: 0%
- relative binding capacity [8]: 0%
- relative binding capacity [9]: 0%
Binder: Ac-AKGIQEVKGGKDAQNLIGISI-NH2 [PRE 5]
